Columns and labels:
[1] = molecular target: T1, Mgal-WhiA (Mycoplasmoides gallisepticum, UniProt A0A0F6CKV5); assay: microscale thermophoresis, Cy5-labelled protein, Hill fit; format: binding
T1 construct: E. coli BL21-Gold (DE3); monomer without DNA; Cy5 NHS-ester labelled for ATP MST
T1 sequence (A0A0F6CKV5 1-295): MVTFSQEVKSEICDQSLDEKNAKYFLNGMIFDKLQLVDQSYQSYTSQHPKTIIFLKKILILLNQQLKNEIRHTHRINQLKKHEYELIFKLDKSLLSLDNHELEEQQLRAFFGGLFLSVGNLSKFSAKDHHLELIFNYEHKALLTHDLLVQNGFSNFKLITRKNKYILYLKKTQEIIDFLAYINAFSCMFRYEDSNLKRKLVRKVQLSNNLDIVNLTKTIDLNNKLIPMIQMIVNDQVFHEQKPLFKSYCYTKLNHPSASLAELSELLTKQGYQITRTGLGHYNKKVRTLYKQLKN

[2] = molecular target: T2, Mgal-WhiA (Mycoplasma gallisepticum S6, UniProt A0A0F6CKV5 1-295); assay: EMSA; 1 mM ATP; total binding; unit not printed (nM implied); EMSA: 20 mM carbonate pH 9.8, 6% glycerol, 37 C 10 min, gel at 10 C; MST: PBS (10 mM Na phosphate pH 7.4, 140 mM NaCl, 3 mM KCl), 0.05% Tween-20, 50 mM imidazole, 50 nM duplex, 20 C; details: protein: recombinant, blunt
[3] = molecular target: T2, Mgal-WhiA; assay: MST; no ATP; Hill n = 1.8 ± 0.2; EMSA: 20 mM carbonate pH 9.8, 6% glycerol, 37 C 10 min, gel at 10 C; MST: PBS (10 mM Na phosphate pH 7.4, 140 mM NaCl, 3 mM KCl), 0.05% Tween-20, 50 mM imidazole, 50 nM duplex, 20 C; details: protein: recombinant; label: 5' FAM (EMSA) or HEX (MST) on strand 1; blunt
[4] = molecular target: T2, Mgal-WhiA; assay: EMSA; no ATP; monomer complex; EMSA: 20 mM carbonate pH 9.8, 6% glycerol, 37 C 10 min, gel at 10 C; MST: PBS (10 mM Na phosphate pH 7.4, 140 mM NaCl, 3 mM KCl), 0.05% Tween-20, 50 mM imidazole, 50 nM duplex, 20 C; details: protein: recombinant; label: 5' FAM (EMSA) or HEX (MST) on strand 1; blunt
[5] = molecular target: Mgal-WhiA Lys-170 (Mycoplasma gallisepticum S6, UniProt A0A0F6CKV5 1-295, K171G); assay: EMSA; dimeric complex favoured; EMSA: 20 mM carbonate pH 9.8, 6% glycerol, 37 C 10 min, gel at 10 C; MST: PBS (10 mM Na phosphate pH 7.4, 140 mM NaCl, 3 mM KCl), 0.05% Tween-20, 50 mM imidazole, 50 nM duplex, 20 C; details: protein: recombinant; label: 5' FAM (EMSA) or HEX (MST) on strand 1; blunt
[6] = molecular target: Mgal-WhiA Ser-258 (Mycoplasma gallisepticum S6, UniProt A0A0F6CKV5 1-295, S259G); assay: MST; EMSA: 20 mM carbonate pH 9.8, 6% glycerol, 37 C 10 min, gel at 10 C; MST: PBS (10 mM Na phosphate pH 7.4, 140 mM NaCl, 3 mM KCl), 0.05% Tween-20, 50 mM imidazole, 50 nM duplex, 20 C; details: protein: recombinant; label: 5' FAM (EMSA) or HEX (MST) on strand 1; blunt
[7] = molecular target: Mgal-WhiA Lys-216 (Mycoplasma gallisepticum S6, UniProt A0A0F6CKV5 1-295, K217G); assay: as above; details: protein: recombinant; label: 5' FAM (EMSA) or HEX (MST) on strand 1; blunt
[8] = molecular target: T2, Mgal-WhiA; assay: EMSA; no ATP; total binding; EMSA: 20 mM carbonate pH 9.8, 6% glycerol, 37 C 10 min, gel at 10 C; MST: PBS (10 mM Na phosphate pH 7.4, 140 mM NaCl, 3 mM KCl), 0.05% Tween-20, 50 mM imidazole, 50 nM duplex, 20 C; details: protein: recombinant, blunt
[9] = molecular target: T2, Mgal-WhiA; assay: MST; 1 mM ATP; n = 1; multistep curve; EMSA: 20 mM carbonate pH 9.8, 6% glycerol, 37 C 10 min, gel at 10 C; MST: PBS (10 mM Na phosphate pH 7.4, 140 mM NaCl, 3 mM KCl), 0.05% Tween-20, 50 mM imidazole, 50 nM duplex, 20 C; details: protein: recombinant; label: 5' FAM (EMSA) or HEX (MST) on strand 1; blunt
[10] = molecular target: T2, Mgal-WhiA; assay: EMSA; 1 mM ATP; monomer complex; EMSA: 20 mM carbonate pH 9.8, 6% glycerol, 37 C 10 min, gel at 10 C; MST: PBS (10 mM Na phosphate pH 7.4, 140 mM NaCl, 3 mM KCl), 0.05% Tween-20, 50 mM imidazole, 50 nM duplex, 20 C; details: protein: recombinant; label: 5' FAM (EMSA) or HEX (MST) on strand 1; blunt
[11] = molecular target: T2, Mgal-WhiA; assay: EMSA; monomer complex; printed as with ATP, order probably swapped (no ATP likely); EMSA: 20 mM carbonate pH 9.8, 6% glycerol, 37 C 10 min, gel at 10 C; MST: PBS (10 mM Na phosphate pH 7.4, 140 mM NaCl, 3 mM KCl), 0.05% Tween-20, 50 mM imidazole, 50 nM duplex, 20 C; details: protein: recombinant; label: 5' FAM on strand 1; blunt
[12] = molecular target: T2, Mgal-WhiA; assay: EMSA; monomer complex; printed as without ATP, order probably swapped (1 mM ATP likely); EMSA: 20 mM carbonate pH 9.8, 6% glycerol, 37 C 10 min, gel at 10 C; MST: PBS (10 mM Na phosphate pH 7.4, 140 mM NaCl, 3 mM KCl), 0.05% Tween-20, 50 mM imidazole, 50 nM duplex, 20 C; details: protein: recombinant; label: 5' FAM on strand 1; blunt
[13] = molecular target: T2, Mgal-WhiA; assay: FRET; with Q3 core duplex; strong quenching; EMSA: 20 mM carbonate pH 9.8, 6% glycerol, 37 C 10 min, gel at 10 C; MST: PBS (10 mM Na phosphate pH 7.4, 140 mM NaCl, 3 mM KCl), 0.05% Tween-20, 50 mM imidazole, 50 nM duplex, 20 C; details: protein: recombinant; label: 5' 6-FAM on strand 1; blunt
[14] = molecular target: T2, Mgal-WhiA; assay: MST; 1 mM ATP; multistep curve, conflicts with EMSA; EMSA: 20 mM carbonate pH 9.8, 6% glycerol, 37 C 10 min, gel at 10 C; MST: PBS (10 mM Na phosphate pH 7.4, 140 mM NaCl, 3 mM KCl), 0.05% Tween-20, 50 mM imidazole, 50 nM duplex, 20 C; details: protein: recombinant; label: 5' FAM (EMSA) or HEX (MST) on strand 1; blunt
[15] = label: 5' FAM (EMSA) or HEX (MST) on strand 1

## Nc1ncnc2c1ncn2[C@@H]1O[C@H](COP(=O)(O)OP(=O)(O)OP(=O)(O)O)[C@@H](O)[C@H]1O [ATP]
[1]
  Kd: 5000 ± 100 µM

B1: rpsJ WT (dsDNA)
DNA 1: AAAGATTGCTGATACACCAAAAACCGTTGTCAAGTATCAG
DNA 2: CTGATACTTGACAACGGTTTTTGGTGTATCAGCAATCTTT
[2]; [15]
  Kd: 0.68 ± 0.09 µM
[3]
  Kd: 0.7 ± 0.1 µM
[4]
  Kd: 0.61 ± 0.1 µM
[5]
  binding result: binds
[6]
  Kd: 2.6 ± 0.2 µM
[7]
  Kd: 1.7 ± 0.1 µM
[8]; [15]
  Kd: 0.7 ± 0.08 µM
[9]
  Kd: 0.088 ± 0.012 µM
[10]
  Kd: 0.24 ± 0.07 µM

B2: Mut1 (dsDNA)
DNA 1: AAAGATTGCTGATACACCAAAAACCAGACTCAAGTATCAG
DNA 2: CTGATACTTGAGTCTGGTTTTTGGTGTATCAGCAATCTTT
[2]; label: 5' FAM on strand 1
  Kd: 0.43 ± 0.09 µM
[11]
  Kd: 0.85 ± 0.13 µM
[8]; label: 5' FAM on strand 1
  Kd: 0.75 ± 0.03 µM
[12]
  Kd: 0.29 ± 0.18 µM

B3: WhiA-F1 (aux half-site) (dsDNA)
DNA 1: AACCGTTGTCAAGTATC
DNA 2: GATACTTGACAACGGTT
[13]
  binding result: binds

B4: Negative control (plsC promoter) (dsDNA)
DNA 1: AGCGATAAGTTTTACGAATTAAGTCGTTTATTATATAATA
DNA 2: TATTATATAATAAACGACTTAATTCGTAAAACTTATCGCT
[14]
  Kd: 0.12 ± 0.05 µM
